Measured values from patent US20180245061A1, “Modified Heterocyclase” (THE UNIVERSITY COURT OF THE UNIVERSITY OF ABERDEEN, priority 2014, published 2018).
Residue numbers refer to the chain shown, from its start.

Tests used:
[1] = target: T1, full-length PatE'4 leader peptide (tryptic fragment of PatE' D2Y, K3E, K4E, R16E)
T1 chain: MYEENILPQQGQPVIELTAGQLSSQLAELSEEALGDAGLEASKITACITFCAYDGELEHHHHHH

[2] = target: T2, minimal leader LAELSEEAL synthetic peptide
T2 chain: LAELSEEAL

PatE' L26R = target: T3, PatE' L26R; assay: ITC, 20 C
T3 peptide: T1 chain with Y2D, E3K, E4K, E16R, L26R

PatE' L29R = target: T4, PatE' L29R; assay: ITC, 20 C
T4 construct: Point mutant of PatE'
T4 peptide: T1 chain with Y2D, E3K, E4K, E16R, L29R

PatE' E31R = target: T5, PatE' E31R; assay: ITC, 20 C
T5 construct: Point mutant of PatE'
T5 peptide: T1 chain with Y2D, E3K, E4K, E16R, E31R

[3] = target: the molecule itself; assay: X-ray crystal structures; gel filtration suggested a dimer
[4] = target: T6, PatE' (precursor peptide PatE variant, 64 amino acids, full leader, single core peptide ITACITFC, C-terminal …); assay: ITC, 20 C, one-site model with stoichiometry set to 1; LynD in the cell, peptide in the syringe
T6 peptide: T1 chain with Y2D, E3K, E4K, E16R

PatE' E32R = target: T7, PatE' E32R; assay: as above
T7 construct: Point mutant of PatE'
T7 peptide: T1 chain with Y2D, E3K, E4K, E16R, E32R

PatE' C51A = target: T8, PatE' C51A; assay: X-ray co-crystal structures LynD/ATP/PatE'C51A (2.14 A) and LynD/beta,gamma-imido-ATP/PatE'C51A (3.01 A)
T8 peptide: T1 chain with Y2D, E3K, E4K, E16R, C51A

PatE′ [5] = assay: Heterocyclization reaction with PatE′, MS analysis; type: biochemical; settings: 5 mM ATP, 5 mM MgCl2, 16 h at 37° C.; for No. of heterocycles, peptide PatE′: 2 μM enzyme, TABLE 2
Chain of PatE′ (as listed by the source): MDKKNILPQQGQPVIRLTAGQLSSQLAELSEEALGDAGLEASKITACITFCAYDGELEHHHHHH

PatE′ L26R [6] = assay: ITC substrate peptide binding: PatE′ L26R; settings: 10 μM enzyme, 150 μM peptide, 20° C.
Chain of PatE′ L26R (as listed by the source, stated change not applied): as the sequence (as listed by the source) above, with L26R counted along it
Protocol: (§1) ITC experiments were performed using a VP-ITC instrument (MicroCal) in heterocyclization reaction buffer (150 mM NaCl, 10 mM HEPES pH7.4, 1 mM TCEP) supplemented with 5 mM MgCl2. For substrate binding experiments a cell solution of 10 μM LynD (and mutants) and a syringe solution of 150 μM PatE′ (and mutants) was prepared by diluting protein and peptide with the buffer used for dialysis. For nucleotide binding experiments, the cell concentration was increased to 20 μM, and the ATP/AMP concentration in the syringe solution was 300 μM. Substrate, and ATP experiments were performed at 20° C., and AMP experiments at 25° C. Cell and syringe solutions were degassed for 15 min at 18 and 23° C. Titration method was as follows: one injection of 2 μl followed by injections of 5 μl at 0.5 μl/min, with a delay of 4 min between every injection. The stirring speed was 307 rpm throughout. Raw data was processed using MicroCal Origin software, and the baseline was adjusted and the integrations limits were selected manually. Data was non-linearly fitted to the one-site model (Origin) setting the stoichiometry to 1.

PatE′ L29R = assay: ITC substrate peptide binding: PatE′ L29R; settings: 10 μM enzyme, 150 μM peptide, 20° C.
Chain of PatE′ L29R (as listed by the source, stated change not applied, one chain of several): as the sequence (as listed by the source) above, with L29R counted along it
Protocol: as §1

PatE′ E31R = assay: ITC substrate peptide binding: PatE′ E31R; settings: 10 μM enzyme, 150 μM peptide, 20° C.
Chain of PatE′ E31R (as listed by the source, stated change not applied): as the sequence (as listed by the source) above, with E31R counted along it
Protocol: as §1

PatE′ L26R [7] = assay: Heterocyclization reaction with PatE′ L26R; type: biochemical; settings: 2 μM enzyme, 5 mM ATP, 5 mM MgCl2, 16 h at 37° C.
Protocol: (§2) For all heterocyclization reactions, […] PatE′ (and variants,) was incubated with 2 μM enzyme in 150 mM NaCl, 10 mM HEPES pH 7.4, 1 mM TCEP, 5 mM ATP and 5 mM MgCl2 for 16 h at 37° C. Samples were analyzed by ESI or MALDI MS (LCT, Micromass or 4800 MALDI TOF/TOF Analyzer, ABSciex). For cis trans activation studies, 100 μM ITACITFCAYDG synthetic test peptide (Peptide Protein Research Ltd) was reacted with 5 μM heterocyclase enzyme in the presence and absence of 5.5 μM LAELSEEAL synthetic peptide, or 5.5 μM full-length PatE′4 leader peptide. The reaction was carried out in 150 mM NaCl, 10 mM HEPES pH 7.4, 1 mM TCEP, 5 mM ATP and 5 mM MgCl2 for 16 h at 37° C. and analyzed as above. Synthetic peptides were purchased from Peptide Protein Research Ltd.

PatE′ E32R = assay: Heterocyclization reaction with PatE′ E32R; type: biochemical; settings: 2 μM enzyme, 5 mM ATP, 5 mM MgCl2, 16 h at 37° C.
Chain of PatE′ E32R (as listed by the source, stated change not applied): as the sequence (as listed by the source) above, with E32R counted along it
Protocol: as §2

[8] = target: T6, PatE' (precursor peptide PatE variant, …); assay: ITC, 20 C
PatE′ [9] = assay: ITC substrate peptide binding: PatE′; settings: 10 μM enzyme, 150 μM peptide, 20° C.
Protocol: as §1

full-length PatE = assay: Heterocyclization of full length PatE substrate (core sequence ITVCISVC), MALDI-TOF-MS; type: biochemical; settings: MALDI-TOF-MS (FIG. 9)
Text: Reaction Zoomed view with reaction products identified. The mass of the starting material is 6983.8 Da.

B1: LynD heterocyclase, full-length (Lyngbya sp. PCC 8106) (enzyme)
chain: MQSTPLLQIQPHFHVEVIEPKQVYLLGEQANHALTGQLYCQILPLLNGQYTLEQIVEKLDGEVPPEYIDYVLERLAEKGYLTEAAPELSSEVAAFWSELGIAPPVAAEALRQPVTLTPVGNISEVTVAALTTALRDIGISVQTPTEAGSPTALNVVLTDDYLQPELAKINKQALESQQTWLLVKPVGSVLWLGPVFVPGKTGCWDCLAHRLRGNREVEASVLRQKQAQQQRNGQSGSVIGCLPTARATLPSTLQTGLQFAATEIAKWIVKYHVNATAPGTVFFPTLDGKIITLNHSILDLKSHILIKRSQCPTCGDPKILQHRGFEPLKLESRPKQFTSDGGHRGTTPEQTVQKYQHLISPVTGVVTELVRITDPANPLVHTYRAGHSFGSATSLRGLRNTLKHKSSGKGKTDSQSKASGLCEAVERYSGIFQGDEPRKRATLAELGDLAIHPEQCLCFSDGQYANRETLNEQATVAHDWIPQRFDASQAIEWTPVWSLTEQTHKYLPTALCYYHYPLPPEHRFARGDSNGNAAGNTLEEAILQGFMELVERDGVALWWYNRLRRPAVDLGSFNEPYFVQLQQFYRENDRDLWVLDLTADLGIPAFAGVSNRKTGSSERLILGFGAHLDPTIAILRAVTEVNQIGLELDKVPDENLKSDATDWLITEKLADHPYLLPDTTQPLKTAQDYPKRWSDDIYTDVMTCVNIAQQAGLETLVIDQTRPDIGLNVVKVTVPGMRHFWSRFGEGRLYDVPVKLGWLDEPLTEAQMNPTPMPF
notes: also called native LynD; cyanobactin heterocyclase LynD
[1]
  acceleration of the turnover of the test peptide […] (trans activation, MALDI TOF MS time course): 6.7- and 5.0-fold, respectively
[2]
  acceleration of the turnover of the test peptide […] (trans activation, MALDI TOF MS time course): 6.7- and 5.0-fold, respectively
PatE' L26R
  binding result: no binding
PatE' L29R
  binding result: no binding
PatE' E31R
  binding result: no binding
[3]
  binding result: binds
[4]
  Kd: 1.49 µM
PatE' E32R
  Kd: 18.4 µM
PatE' C51A
  binding result: binds

B2: LynD: full-length cyanobactin heterocyclase LynD (Lyngbya sp. PCC 8106), SEQ ID NO: 1 (protein)
chain: B1 chain
modifications: Lyngbya sp. PCC 8106
PatE′ [5]
  No. of heterocycles, peptide PatE′: 2
PatE′ [5]; PatE′ with 2 μM enzyme, TABLE 1
  No. of heterocycles (PatE′): 2
PatE′ L26R [6]
  KD (μM), peptide PatE′ L26R: no binding
PatE′ L29R
  KD (μM), peptide PatE′ L29R: no binding
PatE′ E31R
  KD (μM), peptide PatE′ E31R: no binding
PatE′ L26R [7]
  No. of heterocycles, peptide PatE′ L26R: 2
PatE′ E32R
  No. of heterocycles, peptide PatE′ E32R: 2

B3: LynD R74E (enzyme)
chain: B1 chain with R74E
notes: Point mutant of LynD
[8]
  binding result: no binding
PatE' E31R
  binding result: no binding
PatE′ [5]
  No. of heterocycles, peptide PatE′: 2
PatE′ [9]
  KD (μM), peptide PatE′: no binding
PatE′ E31R
  KD (μM), peptide PatE′ E31R: no binding

B4: MicD-Q21-5G: fused-MicD: leader from Q21, 5 GA repeats linker, KL, MicD (SEQ ID NO: 40) (protein)
chain: MSHHHHHHDYDENLYFQGSQLSSQLAELSEEALGDAGAGAGAGAGAKLMQSTPLLQIQPHFHVEVIEPKQVYLLGEQANYALTGQLYCQILPLLDGQHSREQIVEKLDGEVPSEYIDYVLDRLAEKGYLTEAAPELSSEVAAFWSELGIAPPVAAEALRQSVTLTPVGNISEVTVAALTTALRDIGISVQTPTEAGSPTALNVVLTDDYLQPELAKINKQALESQQTWLLVKPVGSVLWLGPVFVPGKTGCWDCLAHRLRGNREVEASVLQQKQAQQQRNGQSGSVIGCLPTARATLPSTLQTGLQFAATEIAKWIVKHHVKATAPGTVFFPTLDGKIITFNHTVIDLKSHVLVRRSQCPSCGDRQILHRQGFEPVKLVSRRKHFTHDGGHRAFTPEQTVQKYQHLVSPITGVVTELVRLTDPANPLVHTYKAGHAFGSATTLRGLRNTLKYKSSGKGKTDIQSRASGLCEAIERYSGIFQGDEPRKRATLAELGDLALHPESLLYFSNTQYANREELNAQGSAAAYRWIPNRFDVSQAIDWTPVWSLTEQKHKYVPTAFCYYGYPLPEEQRFCKADSNGNAAGNTLEEAILQGFLELVERDSIAMWWYNRIRRPAVDLSTFDEPYFVDLQQFYQQQNRELWVLDVTADLGIPAFAGFSRRTVGTSERISIGFGAHLDPTIAILRALTEVSQVGLELDKIPDDKLDGESKDWMLNVTVENHPWLAPDPSVPMKTASDYPKRWSDDIHTDVMNCVKTAQTAGLEVMVLDQTRPDIGLNVVKVIIPGMRTFWTRFGQGRLYDIPVKLGWLDAPLAEEELNQTNIPF
modifications: Modified heterocyclase MicroD_Q21_5GA
full-length PatE
  heterocyclization of full-length PatE: inefficiently and produce a mixture of different heterocyclic species
